Laboratory results from patent US20220340682A1 (Sanofi, published 2022).
Numbering of substitutions follows the chain as printed.

T1: human CEACAM5 expressed on the surface of tumor cells (human, UniProt P06731 35-685)
T1 construct: Endogenous CEACAM5 of human tumor cells; also called hCEACAM5 on MKN45 cells; CEACAM5 on CR-IGR-034P primary colon tumor cells
T1 sequence: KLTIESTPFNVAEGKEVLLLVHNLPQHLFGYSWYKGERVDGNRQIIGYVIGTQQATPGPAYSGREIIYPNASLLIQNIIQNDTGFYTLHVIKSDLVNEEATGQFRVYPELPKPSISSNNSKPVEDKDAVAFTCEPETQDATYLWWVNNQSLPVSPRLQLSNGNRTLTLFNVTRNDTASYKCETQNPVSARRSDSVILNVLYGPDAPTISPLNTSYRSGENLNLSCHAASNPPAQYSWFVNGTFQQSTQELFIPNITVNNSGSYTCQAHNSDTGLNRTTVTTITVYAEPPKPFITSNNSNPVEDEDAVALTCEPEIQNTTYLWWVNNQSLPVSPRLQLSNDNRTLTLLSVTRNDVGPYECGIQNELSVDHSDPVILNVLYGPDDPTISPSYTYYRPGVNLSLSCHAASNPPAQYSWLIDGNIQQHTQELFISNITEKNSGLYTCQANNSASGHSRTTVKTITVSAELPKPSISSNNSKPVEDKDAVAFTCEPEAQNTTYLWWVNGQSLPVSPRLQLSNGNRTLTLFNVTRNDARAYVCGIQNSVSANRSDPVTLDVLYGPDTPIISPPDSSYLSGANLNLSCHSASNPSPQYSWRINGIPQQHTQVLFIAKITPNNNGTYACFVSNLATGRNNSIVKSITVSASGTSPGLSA

T2: cCEACAM1, M. fascicularis CEACAM1 ECD (35-428) (Macaca fascicularis)
T2 construct: With 24 amino acid extension containing a His-Tag; also called cynomolgus CEACAM1
T2 chain: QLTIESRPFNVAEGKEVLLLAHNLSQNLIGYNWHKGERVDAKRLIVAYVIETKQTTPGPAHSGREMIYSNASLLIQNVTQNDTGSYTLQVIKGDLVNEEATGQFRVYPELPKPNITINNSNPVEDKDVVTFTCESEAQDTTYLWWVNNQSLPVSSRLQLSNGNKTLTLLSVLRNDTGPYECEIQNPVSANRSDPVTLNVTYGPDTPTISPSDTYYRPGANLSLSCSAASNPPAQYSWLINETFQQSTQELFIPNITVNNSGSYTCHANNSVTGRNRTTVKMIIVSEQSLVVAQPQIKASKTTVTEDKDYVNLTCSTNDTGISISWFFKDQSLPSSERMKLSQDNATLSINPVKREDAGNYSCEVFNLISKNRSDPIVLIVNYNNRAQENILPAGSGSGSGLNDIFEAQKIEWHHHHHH

T3: cCEACAM8, M. fascicularis CEACAM8 ECD (35-332) (Macaca fascicularis)
T3 construct: With 24 amino acid extension containing a His-Tag; also called cynomolgus CEACAM8
T3 chain: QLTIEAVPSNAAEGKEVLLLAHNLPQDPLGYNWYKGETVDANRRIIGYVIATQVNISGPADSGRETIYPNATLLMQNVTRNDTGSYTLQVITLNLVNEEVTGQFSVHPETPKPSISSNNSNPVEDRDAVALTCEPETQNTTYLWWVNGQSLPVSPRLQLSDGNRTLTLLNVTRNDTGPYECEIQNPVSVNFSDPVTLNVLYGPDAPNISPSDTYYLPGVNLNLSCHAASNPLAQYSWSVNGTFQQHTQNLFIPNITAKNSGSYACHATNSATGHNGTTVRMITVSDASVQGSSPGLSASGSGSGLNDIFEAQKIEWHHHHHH

T4: cCEACAM5, M. fascicularis CEACAM5 ECD (35-688) (Macaca fascicularis)
T4 construct: ECD followed by a 24 amino acid extension containing a His-Tag; also called cynomolgus CEACAM5; monkey CEACAM5
T4 chain: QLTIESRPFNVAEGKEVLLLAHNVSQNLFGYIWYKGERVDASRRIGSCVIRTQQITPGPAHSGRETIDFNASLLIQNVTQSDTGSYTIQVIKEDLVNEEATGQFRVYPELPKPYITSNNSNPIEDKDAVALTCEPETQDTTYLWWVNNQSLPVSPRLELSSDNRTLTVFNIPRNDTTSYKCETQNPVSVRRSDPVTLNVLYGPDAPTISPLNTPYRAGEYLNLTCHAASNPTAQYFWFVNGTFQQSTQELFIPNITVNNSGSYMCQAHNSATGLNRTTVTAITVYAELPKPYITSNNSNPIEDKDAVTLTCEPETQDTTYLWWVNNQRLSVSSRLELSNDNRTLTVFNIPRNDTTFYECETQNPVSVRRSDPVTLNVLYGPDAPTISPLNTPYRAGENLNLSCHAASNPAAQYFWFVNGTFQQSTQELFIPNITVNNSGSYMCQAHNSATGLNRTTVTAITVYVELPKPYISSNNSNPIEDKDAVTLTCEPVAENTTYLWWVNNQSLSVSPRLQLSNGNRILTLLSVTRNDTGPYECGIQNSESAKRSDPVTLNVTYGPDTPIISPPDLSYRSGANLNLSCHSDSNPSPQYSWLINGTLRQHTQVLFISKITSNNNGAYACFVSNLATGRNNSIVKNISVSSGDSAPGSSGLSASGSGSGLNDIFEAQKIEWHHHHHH

B1: antibody MAb4 (antibody, IgG1, V domains shown)
VH: EVQLVESGGGLVKPGGSLKLSCAASGFTFSSYDMSWVRQTPEKRLEWVAFISSYGGRTYYADTVKGRFTISRDNAKNTLYLQMSSLKSEDTAMFYCAAHYFGTSGPFAYWGQGTLVTVSA
VL: DIQMTQSPASLSASVGETVTITCRASENIYSYFAWYQQKQGKSPQLLVYNAKILAEGVPSRFSGSGSGTQFSLKINSLQPEDFGTYYCQHHYGIPFTFGSGTKLELK
notes: Murine monoclonal from hybridoma, IgG1, kappa
B2: antibody MAb5 (antibody, IgG1, V domains shown)
VH: ELQLVESGGVLVKPGGSLKLSCAASGFAFSSYDMSWVRQTPEKRLEWVTYINSGGGITYYPDTVKGRFTISRDNARNTLYLQMSSLKSEDTAIYYCTAHYFGSSGPFAYWGQGTLVTVSA
VL: B1 VL with F33L, I53T, A55T, T85S, I94T, L106I
notes: as for B1
B3: antibody MAb1 (antibody, IgG1, V domains shown)
VH: EVMLVESGGGLVKPGGSLKLSCAASGFTFSSYAMSWVRQTPEKRLEWVATISSGGSYIYYLDSVKGRFTISRDNAKNTLYLQMSSLRSEDTAMYYCARPAYYGNPAMDYWGQGTSVTVSS
VL: DILMTQSQKFMSTSVGDRVSVTCKASQNVGTNVAWYQQKPGQSPKPLIYSASYRYSGVPDRFTGSGSGTDFTLTISNVQSEDLAEYFCQQYNSYPLYTFGGGTKLEIK
B4: antibody MAb3 (antibody, IgG1, V domains shown)
VH: EVKLVESGGGLVKPGGSLTLPCAASGFTFSRYAMSWVRQTPEKRLEWVASISSGGDTYYPDSVKGRFTVSRDNARNILFLQMSSLRSEDTGMYYCARVNYYDSSFLDWWGQGTTLTVSS
VL: B3 VL with L3V, K9R, S14L, V15E, P46A, S93N
notes: as for B1
B5: huMAb2-3 (antibody, human IgG1, kappa, V domains shown)
VH: EVQLQESGPGLVKPGGSLSLSCAASGFVFSSYDMSWVRQTPERGLEWVAYISSGGGITYAPSTVKGRFTVSRDNAKNTLYLQMNSLTSEDTAVYYCAAHYFGSSGPFAYWGQGTLVTVSS
VL: DIQMTQSPASLSASVGDRVTITCRASENIFSYLAWYQQKPGKSPKLLVYNTRTLAEGVPSRFSGSGSGTDFSLTISSLQPEDFATYYCQHHYGTPFTFGSGTKLEIKR
notes: Humanized MAb2, human IgG1 / Ckappa; also called MAb2_VL1cVH1a-IgG1
B6: huMAb2-1 (antibody, V domains shown)
VH: B5 VH with G44R, A60F, V93I, S120A
VL: DIQMTQSPASLSASVGDTVTITCRASENIFSYLAWYQQKPGKSPKLLVYNTKTLAEGVPSRFSGSGSGTQFSLTISSLQPEDFGSYYCQHHYGTPFTFGSGTKLEIK
notes: Humanized MAb2 (VL1 + VH1) fused to human IgG1 and human Ckappa constant domains; also called MAb2_VL1VH1-IgG1; MAb2VL1VH1-IgG1
B7: chMAb2 (antibody, human IgG1, kappa, V domains shown)
VH: EVQLQESGGVLVKPGGSLKLSCAASGFVFSSYDMSWVRQTPEKRLEWVAYISSGGGITYFPDTVQGRFTVSRDNAKNTLYLQMNSLKSEDTAIYYCAAHYFGSSGPFAYWGQGTLVTVSA
VL: B5 VL with D17E, R18T, P40Q, K45Q, R52K, D70Q, T74K, S76N, A84G, T85S
notes: Chimeric, human IgG1, Ck isotype; also called MAb2-IgG1; chimeric MAb2
B8: huMAb2-2 (antibody, V domains shown)
VH: B5 VH
VL: B6 VL with T18R, Q70D, G84A, S85T
notes: Humanized MAb2 (VL1a + VH1a) fused to human IgG1 and human Ckappa constant domains; also called MAb2_VL1aVH1a-IgG1; MA2_VL1aVH1a-IgG1
B9: huMAb2-4 (antibody, human IgG1, kappa, V domains shown)
VH: B5 VH with G44R, A60F, V93I, S120A
VL: B5 VL with R18T, D70Q, A84G, T85S
notes: Humanized MAb2, human IgG1 / Ckappa; also called MAb2_VL1d VH1-IgG1; MAb2_VL1dVH1-IgG1

Each binder was assayed against T1, human CEACAM5 expressed on the surface … (assay: flow cytometry on CR-IGR-034P primary colon tumor cells).
Procedure: Advanced human primary colon tumor CR-IGR-034P (Julien et al., Clin Cancer Res Oct. 1, 2012 18:5314-5328) was obtained from Patient-derived xenograft in mice. Tumor CR-IGR-034P was enzymatically dissociated using collagenase Type IV (Invitrogen; #17104-019) and deoxyribonuclease I (Invitrogen; #18047-019) for 1 h at […], Cell viability was estimated by Viacount application using Guava® easyCyte™ 8HT Flow Cytometry System. […] 100 μL/well of goat anti-mouse IgG conjugated with Alexa647 (Invitrogen; # A2135) or goat anti-human IgG conjugated with Alexa488 (Invitrogen; # A11013) was added for 45 min at 4° C. and washed three times with PBS 1% BSA. The antibody binding was evaluated after centrifugation and resuspension of cells by adding 200 pliwell PBS 1% BSA and read using Guava® easyCyte™ 8HT Flow Cytometry System. Apparent KD and EC50 values were estimated using BIOST@T-BINDING and BIOST@T-SPEED softwares, respectively.

EC50	Binder
0.2 nM	B1
1.4 nM	B2
1 nM	B3
2.8 nM	B4

Molecular target: T2, cCEACAM1, M. fascicularis CEACAM1 ECD …
Experiment: ELISA

percentage of binding compared to full binding with cynomolgus CEACAM5	Binder
0.3%	B5
0.3%	B6
0.2%	B7
0.3%	B8
0.3%	B9

Molecular target: T3, cCEACAM8, M. fascicularis CEACAM8 ECD …
Experiment: ELISA

percentage of binding compared to full binding with cynomolgus CEACAM5	Binder
1.2%	B5
3.6%	B6
1.2%	B7
0.9%	B8
3.2%	B9

Molecular target: T4, cCEACAM5, M. fascicularis CEACAM5 ECD …
Experiment: ELISA

percentage of binding compared to full binding with cynomolgus CEACAM5	Binder
100%	B5
100%	B6
100%	B7
100%	B8
100%	B9
